Measured values: patent US20260184785A1 (CYTOCARES SHANGHAI, published 2026)

Molecular target: T1, trispecific antibody LMOAME
T1 construct: Trispecific single-chain tandem scFv, monomer of 83.8 kDa without Fc; also called CD19×CD3×CD28 antibody; LMOAME DP
Assay: ELISA, antigen-Fc coated on the plate, detection with HRP-protein L
Procedure: Recombinant human CD19 antigen (CD19 (C-Fc), Novoprotein, Cat #: C572), and CD28 antigen (CD28 (C-Fc), Novoprotein, Cat #: C81) were diluted to 2 μg/mL with a protein coating solution, and plates were coated with the dilutions of 100 μL per well overnight at 2-8° C. The plates were washed the next day and blocked with a blocking solution of 1% Casein+3% BSA (PBS+2% BSA (V/W)).
The diluted antibodies were added to the 96-well flat bottom plates coated with antigens respectively and incubated for 1 h at 37° C.

B1: Recombinant human CD19 antigen (CD19 (C-Fc), Novoprotein, Cat #: C572) (Fc fusion, UniProt P15391 20-291, looked up)
chain: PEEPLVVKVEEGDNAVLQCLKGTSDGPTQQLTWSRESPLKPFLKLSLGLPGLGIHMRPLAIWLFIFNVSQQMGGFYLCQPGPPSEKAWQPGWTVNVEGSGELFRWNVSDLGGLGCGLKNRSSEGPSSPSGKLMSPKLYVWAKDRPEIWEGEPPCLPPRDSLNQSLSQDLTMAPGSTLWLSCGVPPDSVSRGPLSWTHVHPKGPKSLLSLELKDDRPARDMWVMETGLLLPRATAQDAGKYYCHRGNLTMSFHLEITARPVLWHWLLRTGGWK
notes: Bought C-terminal Fc fusion; also called rhCD19; hCD19 antigen; not shown: C-terminal Fc tag of the bought protein
binding result: binds
